According to patent US20260258084A1, “New Peptides as Selective IL-23 Receptor Antagonists” (Sanofi, priority 2022, published 2026):
Starred links: 1 amine or outer side, 2 acyl side, 3 side chain; linkers in the order of their positions; H or OH if unused. Positions of bridges follow the written chain, without caps; N, C: chain ends. Non-standard residues stand in square brackets, D forms with d. Residues, ends and D or L forms follow the SMILES beside them. No end group written: not given here. *: point of attachment. Yde = (2S)-2-amino-3-[4-[2-(dimethylamino)ethoxy]phenyl]propanoic acid, CN(C)CCOc1ccc(C[C@H](N[*:1])C(=O)[*:2])cc1; Phe(4-OMe) = COc1ccc(C[C@H](N[*:1])C(=O)[*:2])cc1; Trp(7-Me) = Cc1cccc2c(C[C@H](N)C(=O)O)c[nH]c12; αMeLys(Me2) = CN(C)CCCC[C@](C)(N)C(=O)O; 2Nal = N[C@@H](Cc1ccc2ccccc2c1)C(=O)O; AEF = NCCOc1ccc(C[C@H](N)C(=O)O)cc1; 3Pal = N[C@@H](Cc1cccnc1)C(=O)O; Dad = desamino-aspartamic acid; αMeL = CC(C)C[C@](C)(N)C(=O)O; Suc = O=C(CCC(=O)[*:2])[*:1]; Nmapt = not defined here; Thp = NC1(C(=O)O)CCOCC1; Me2NCH2CH2 = CN(C)CC*; Aib = CC(C)(N)C(=O)O; Ahx = NCCCCCC(=O)O; Ava = NCCCCC(=O)O

Experiments:
[1] = tested on: IL-23 induced STAT3 signaling in HEK-Blue™ IL-23 cells; assay: IL-23 induced STAT3 signaling in HEK-Blue IL-23 cells (SEAP reporter); type: cell-based; conditions: human IL23 0.25 ng/ml, read-out: pSTAT3
Description: HEK-Blue™ IL-23 cells (Invivogen) are designed for the detection of bioactive human (hIL-23) and murine IL-23 (mIL-23) by monitoring the activation of the STAT3 pathway. Binding of IL-23 to its receptor on the surface of HEK-Blue™ IL-23 cells triggers a signalling cascade leading to the activation of STAT3 and the subsequent production of secreted embryonic alkaline phosphatase (SEAP). This can be readily assessed using QUANTI-Blue™ Solution, a SEAP detection reagent.
HEK-Blue™ IL-23 cells were cultured as described by Invivogen.
On the first day of assay 10 μL of the HEK-Blue IL23 cell suspension (final concentration: 10,000 cells/well) and 10 μl of serially diluted peptides solutions were dispensed into a 384-well assay plate. After pre-incubation of the reaction mixtures at 37° C./5% CO2/95% humidity for 60 minutes, 10 μl of the human IL23 cytokine (final concentration: 0.25 ng/ml) was added to each well for the STAT3 signalling activation. The plate was incubated overnight at 37° C./5% CO2/95% humidity.
On the second day 20 μl per well of Quanti-Blue detection solution (prepared according to the manufacture instruction) was dispensed into a new 384-well plate and followed by the transfer of 5 μl supernatant of the overnight incubated cell/sample mixtures. After incubation of 45 min at room temperature signals were measured with PHERAstar (BMG) at OD 620-655 nm. Dose response data were fitted with XLfit.

[2] = biological target: T1, human interleukin-23 receptor (recombinant human IL-23R-Fc chimera) (Homo sapiens, UniProt Q5VWK5); assay: Human ELISA IL23/IL23R (assay for specific human IL23R antagonists); type: binding; conditions: Table 10; read-out: Human ELISA IL23/IL23R IC50
T1 construct: Fc (IgG Fc fusion)
Procedure: Antagonism of compounds for human interleukin-23 receptor antagonists, was determined by an ELISA assay.
A 384-well plate was coated with 50 μl/well of human IL23 at a final concentration of […] and incubated overnight at 4° C. The wells were washed 3 times with 80 μl wash buffer and blocked with 80 μl blocking buffer for 60 minutes at room temperature and washed again. 20 μl of serially diluted test peptides was added to each well and subsequently 20 μl of recombinant human IL-23R-Fc chimera at final concentration of 0.1 μg/ml. The plate was incubated for 60 minutes at room temperature. After the wells were washed, bound IL23R-Fc was detected with goat anti-hu-IgG1-HRP antibody. Signals were visualized with QuantaBlu Fluorogenic Peroxidase Substrate.

[3] = biological target: T2, IL-23 receptor on the surface of HEK-Blue IL-23 cells (UniProt Q5VWK5 24-629, limits assumed); assay: cell-based or functional assay
T2 sequence (looked up): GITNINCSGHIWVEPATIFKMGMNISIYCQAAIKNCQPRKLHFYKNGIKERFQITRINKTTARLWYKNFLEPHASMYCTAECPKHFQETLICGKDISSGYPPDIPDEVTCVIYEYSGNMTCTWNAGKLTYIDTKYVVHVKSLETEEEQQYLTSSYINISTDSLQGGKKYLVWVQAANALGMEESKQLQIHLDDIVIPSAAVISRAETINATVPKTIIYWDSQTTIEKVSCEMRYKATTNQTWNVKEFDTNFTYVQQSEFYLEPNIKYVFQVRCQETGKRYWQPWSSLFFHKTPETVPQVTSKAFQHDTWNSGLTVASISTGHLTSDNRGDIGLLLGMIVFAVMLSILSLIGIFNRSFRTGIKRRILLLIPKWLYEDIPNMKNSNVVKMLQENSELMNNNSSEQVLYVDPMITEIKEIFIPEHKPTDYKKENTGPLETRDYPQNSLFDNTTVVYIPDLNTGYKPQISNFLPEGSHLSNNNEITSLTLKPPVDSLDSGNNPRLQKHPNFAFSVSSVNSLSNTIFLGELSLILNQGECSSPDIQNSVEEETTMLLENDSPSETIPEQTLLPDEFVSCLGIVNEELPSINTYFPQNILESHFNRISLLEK

Cc1cccc2c(C[C@@H]3NC(=O)[C@H]([C@@H](C)O)NC(=O)[C@H](CC(N)=O)NC(=O)[C@@H]4CSSC[C@H](NC(=O)[C@H](CC(C)C)NC3=O)C(=O)N[C@@H](Cc3ccc(OCCN(C)C)cc3)C(=O)N[C@@H](Cc3ccc5ccccc5c3)C(=O)N[C@@](C)(CCCCN(C)C)C(=O)N[C@H](C(=O)N[C@@H](CC(N)=O)C(=O)N[C@@H](Cc3cccnc3)C(N)=O)CCCCNC(=O)CCC(=O)N4)c[nH]c12 [compound 150] (CNT[Trp(7-Me)]LCY(Me2NCH2CH2)[2Nal][αMeLys(Me2)]KN[3Pal]-NH2; disulfide 1-6; linker N-10 via Suc)
IC50 [1]: 0.13 nM
IC50 [2]: 0.91 nM

B1: Compound of SEQ ID NO: 13 (peptide)
peptide: [Nmapt]CKWQC[AEF][2Nal][Thp]ENN-NH2
modifications: lactam N-10; disulfide 2-6; not fully specified (residue 3); printed as Nmapt(§1)-C(§3)(@2)-K[aAc](@3)-W-Q-C(@2)-Yae-Nal-Thp-E(§1)-N—N—NH2; reading uncertain; also: K[aAc]: Cys2 bonded to epsilon-NH2 of acetylated Lys3, acetyl presumably on alpha-amine
pSTAT3 (nM) [3]: 32 nM

B2: Compound of SEQ ID NO: 12 (peptide)
peptide: [Nmapt]CKWQC[AEF][2Nal][Aib]ENN-NH2
modifications: lactam N-10; disulfide 2-6; not fully specified (residue 3); printed as Nmapt(§1)-C(§3)(@2)-K[aAc](@3)-W-Q-C(@2)-Yae-Nal-Aib-E(§1)-N—N—NH2; reading uncertain; also: K[aAc]: Cys2 bonded to epsilon-NH2 of acetylated Lys3, acetyl presumably on alpha-amine
pSTAT3 (nM) [3]: 27.9 nM

B3: Compound of SEQ ID NO: 19 (peptide)
peptide: [Nmapt]CKWQC[AEF][2Nal][Aib]EA[dL]-NH2
modifications: lactam N-10; disulfide 2-6; not fully specified (residue 3); printed as Nmapt(§1)-C(§3)(@2)-K[aAc](@3)-W-Q-C(@2)-Yae-Nal-Aib-E(§1)-A-(D-Leu)-NH2; reading uncertain; also: K3 acetylated (K[aAc]), acetyl site not given here, ε-NH2 takes the Cys2 bond
pSTAT3 (nM) [3]: 88.3 nM

B4: Compound of SEQ ID NO: 14 (peptide)
peptide: [Nmapt]CKWQC[AEF][2Nal][αMeL]ENN-NH2
modifications: lactam N-10; disulfide 2-6; not fully specified (residue 3); printed as Nmapt(§1)-C(§3)(@2)-K[aAc](@3)-W-Q-C(@2)-Yae-Nal-Mle-E(§1)-N—N—NH2; reading uncertain; also: K[aAc]: Cys2 bonded to epsilon-NH2 of acetylated Lys3, acetyl presumably on alpha-amine
pSTAT3 (nM) [3]: 18.7 nM

B5: Compound of SEQ ID NO: 15 (peptide)
peptide: [Nmapt]CKWQC[AEF][2Nal][Aib]ENG-NH2
modifications: lactam N-10; disulfide 2-6; not fully specified (residue 3); printed as Nmapt(§1)-C(§3)(@2)-K[aAc](@3)-W-Q-C(@2)-Yae-Nal-Aib-E(§1)-N-G-NH2; reading uncertain; also: K3 acetylated (K[aAc]), acetyl site not given here, ε-NH2 takes the Cys2 bond
pSTAT3 (nM) [3]: 29.2 nM

B6: Compound of SEQ ID NO: 11 (peptide)
peptide: [Dad]CNTWQC[Phe(4-OMe)][2Nal][Aib]KNN-NH2
modifications: lactam (positions not given here); disulfide 2-7; not fully specified (bridges); printed as Dad(§1)-C(@2)-N-T-W-Q-C(@2)-Yme-Nal-Aib-K(§1)-N—N—NH2
pSTAT3 (nM) [3]: 53.5 nM

B7: Compound of SEQ ID NO: 2 (peptide)
peptide: [Ahx]CNTWQC[Phe(4-OMe)][2Nal][Aib]ENN-NH2
modifications: lactam N-11; disulfide 2-7
SMILES: COc1ccc(C[C@@H]2NC(=O)[C@@H]3CSSC[C@H](NC(=O)CCCCCNC(=O)CC[C@@H](C(=O)N[C@@H](CC(N)=O)C(=O)N[C@@H](CC(N)=O)C(N)=O)NC(=O)C(C)(C)NC(=O)[C@H](Cc4ccc5ccccc5c4)NC2=O)C(=O)N[C@@H](CC(N)=O)C(=O)N[C@@H]([C@@H](C)O)C(=O)N[C@@H](Cc2c[nH]c4ccccc24)C(=O)N[C@@H](CCC(N)=O)C(=O)N3)cc1
pSTAT3 (nM) [3]: 54 nM

B8: Compound of SEQ ID NO: 10 (peptide)
peptide: [Ava]CNTWQC[Yde][2Nal][αMeL]EN[dL]-NH2
modifications: lactam N-11; disulfide 2-7
SMILES: CC(C)C[C@@H](NC(=O)[C@H](CC(N)=O)NC(=O)[C@@H]1CCC(=O)NCCCCC(=O)N[C@H]2CSSC[C@H](NC(=O)[C@H](CCC(N)=O)NC(=O)[C@H](Cc3c[nH]c4ccccc34)NC(=O)[C@H]([C@@H](C)O)NC(=O)[C@H](CC(N)=O)NC2=O)C(=O)N[C@@H](Cc2ccc(OCCN(C)C)cc2)C(=O)N[C@@H](Cc2ccc3ccccc3c2)C(=O)N[C@@](C)(CC(C)C)C(=O)N1)C(N)=O
pSTAT3 (nM) [3]: 25.8 nM

B9: Compound of SEQ ID NO: 16 (peptide)
peptide: [Nmapt]CKWQC[AEF][2Nal][Thp]ENG-NH2
modifications: lactam N-10; disulfide 2-6; not fully specified (residue 3); printed as Nmapt(§1)-C(§3)(@2)-K[aAc](@3)-W-Q-C(@2)-Yae-Nal-Thp-E(§1)-N-G-NH2; reading uncertain; also: K3 acetylated (K[aAc]), acetyl site not given here, ε-NH2 takes the Cys2 bond
pSTAT3 (nM) [3]: 32.1 nM

B10: Compound of SEQ ID NO: 17 (peptide)
peptide: [Nmapt]CKWQC[AEF][2Nal][Thp]EAG-NH2
modifications: lactam N-10; disulfide 2-6; not fully specified (residue 3); printed as Nmapt(§1)-C(§3)(@2)-K[aAc](@3)-W-Q-C(@2)-Yae-Nal-Thp-E(§1)-A-G-NH2; reading uncertain; also: K3 acetylated (K[aAc]), acetyl site not given here, ε-NH2 takes the Cys2 bond
pSTAT3 (nM) [3]: 62 nM

B11: Compound of SEQ ID NO: 1 (peptide)
peptide: [Ava]CNTWQC[Phe(4-OMe)][2Nal][Aib]ENN-NH2
modifications: lactam N-11; disulfide 2-7
SMILES: COc1ccc(C[C@@H]2NC(=O)[C@@H]3CSSC[C@H](NC(=O)CCCCNC(=O)CC[C@@H](C(=O)N[C@@H](CC(N)=O)C(=O)N[C@@H](CC(N)=O)C(N)=O)NC(=O)C(C)(C)NC(=O)[C@H](Cc4ccc5ccccc5c4)NC2=O)C(=O)N[C@@H](CC(N)=O)C(=O)N[C@@H]([C@@H](C)O)C(=O)N[C@@H](Cc2c[nH]c4ccccc24)C(=O)N[C@@H](CCC(N)=O)C(=O)N3)cc1
pSTAT3 (nM) [3]: 18.5 nM

B12: Compound of SEQ ID NO: 18 (peptide)
peptide: [Nmapt]CKWQC[AEF][2Nal][αMeL]EAG-NH2
modifications: lactam N-10; disulfide 2-6; not fully specified (residue 3); printed as Nmapt(§1)-C(§3)(@2)-K[aAc](@3)-W-Q-C(@2)-Yae-Nal-Mle-E(§1)-A-G-NH2; reading uncertain; also: K3 acetylated (K[aAc]), acetyl site not given here, ε-NH2 takes the Cys2 bond
pSTAT3 (nM) [3]: 69.5 nM
